T1: alpha-methylacyl-CoA racemase (AMACR) (UniProt Q9UHK6 1-382)
T1 sequence: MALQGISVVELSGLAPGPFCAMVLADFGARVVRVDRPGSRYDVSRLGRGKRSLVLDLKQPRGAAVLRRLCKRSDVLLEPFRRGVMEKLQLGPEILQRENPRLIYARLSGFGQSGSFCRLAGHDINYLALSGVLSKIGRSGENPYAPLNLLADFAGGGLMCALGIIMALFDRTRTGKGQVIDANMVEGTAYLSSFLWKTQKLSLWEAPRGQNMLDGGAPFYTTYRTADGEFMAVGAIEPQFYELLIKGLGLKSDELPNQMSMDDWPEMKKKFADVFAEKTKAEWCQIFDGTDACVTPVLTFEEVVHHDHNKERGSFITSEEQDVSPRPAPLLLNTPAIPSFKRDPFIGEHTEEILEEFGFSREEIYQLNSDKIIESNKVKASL

B1: DC14 (dimeric truncated C14) (ssDNA)
DNA: AACCAAATATCTACGCATCATTTTTCCTTTAACCAAATATCTACGCATCATTTTTCCTTT

The binders below were run against T1, alpha-methylacyl-CoA racemase (AMACR) (assay: ELAA).
With AACCAAATATCTACGCATCATTTTTCCTTT (ssDNA) [truncated C14 (N30)] the Kd was 150 ± 55.8 nM. In the case of ACTTTTATCTCTCCTAACCTGTCCTGGGGT (ssDNA) [truncated C20 (N30)], the Kd is reported as 206 ± 36.4 nM. Work on B1 yielded a Kd of 66.6 ± 17 nM. TGAACTACTTAGTTTTATCCACTTATCCTG (ssDNA) [truncated A24 (N30)] showed a Kd of 477 ± 170 nM. CTTTATGTGTCGGGATCAGATACACATCCG (ssDNA) [truncated A38 (N30)] was tested, and the Kd was 813 ± 405 nM. Work on GTCGAACCGTAGGGGCTATCTGTTGTGGGC (ssDNA) [truncated B4 (N30)] yielded a Kd of 869 ± 215 nM. In the case of AAAAATTTTTCCTTGTATGTCATTCTCTCA (ssDNA) [truncated B38 (N30)], the Kd is reported as 173 ± 91.8 nM.

Reference: publication PMC9080631
